B1: CPEB3 Ribozyme (parent)
chain: GGGGGCCACAGCAGAAGCGUUCACGUCGCGGCCCCUGUCAGAUUCUGGUGAAUCUGCGAAUUCUGCUGU

Variants of: B1
Test: self-cleavage, relative activity (ratio to wild type); higher = more cleavage; co-transcriptional

Row | Variant | self-cleavage
1 | U44A U53C | 0.684
2 | U44A U53G | 0.84
3 | U44A U53A | 0.922
4 | U44G U53A | 0.755
5 | U44G U53C | 0.749
6 | U44C G58U | 0.963
7 | U44C G58A | 0.981
8 | U44C G58C | 0.917
9 | C45U A59U | 0.837
10 | C45U A59G | 0.98
11 | C45G A60G | 0.897
12 | C45G A60U | 0.407
13 | C45G A60C | 0.493
14 | U44C G56U | 0.388
15 | U44C G56C | 0.351
16 | U44A G68U | 0.981
17 | U44A G68A | 0.964
18 | U44A G68C | 1.01
19 | U43G G65U | 0.352
20 | U43G G65C | 0.432
21 | U44G U61G | 0.82
22 | U44G U61C | 0.649
23 | C45G U67C | 0.917
24 | C45G U67A | 0.962

Row | Variant | self-cleavage
25 | C45G G58C | 0.946
26 | C45G G58A | 0.919
27 | C45G G58U | 1.01
28 | C45A U67G | 1.01
29 | C45A U67A | 0.951
30 | C45A U67C | 0.98
31 | U44G G47U | 1.01
32 | U44G G47C | 0.962
33 | U44G G47A | 0.954
34 | U44G C63A | 0.835
35 | U44G C63U | 0.918
36 | U44C C54A | 0.627
37 | U44C C54U | 0.816
38 | U44C C54G | 0.599
39 | U44A A59G | 0.924
40 | U44A A59U | 0.725
41 | U44A A59C | 0.638
42 | C45A C63A | 0.817
43 | C45G U49C | 0.915
44 | C45G U49G | 0.947
45 | U44G C45A | 0.932
46 | C45A G65C | 0.533
47 | C45A G65U | 0.729
48 | U44C C57A | 0.301

Row | Variant | self-cleavage
49 | U44C C57U | 0.419
50 | U44C C57G | 0.362
51 | U43G G50A | 0.938
52 | U43G G50U | 0.952
53 | U44A C45U | 0.965
54 | U44A C45G | 0.983
55 | C45A U69G | 1.06
56 | C45A U69A | 1
57 | C45A U69C | 1.07
58 | U44G U55C | 0.512
59 | U44C U46A | 0.958
60 | U44C U46C | 0.972
61 | U44G G50C | 0.949
62 | U44G G50U | 0.98
63 | C45G G68C | 1
64 | C45G G68A | 0.942
65 | C45A U53A | 0.87
66 | U43G C54A | 0.432
67 | U43G C54G | 0.318
68 | C45A C57G | 0.252
69 | C45U C54A | 0.681
70 | U44G G65U | 0.674
71 | U44G G65A | 0.812
72 | U44G G65C | 0.445

Row | Variant | self-cleavage
73 | U44C G48U | 1.02
74 | U44C G48C | 1
75 | U44C G48A | 1.02
76 | C45G G56A | 0.881
77 | C45G G50A | 1.01
78 | C45G G50C | 1.01
79 | C45A C66G | 0.788
80 | C45A U55G | 0.475
81 | C45A U55A | 0.534
82 | C45G C63U | 0.964
83 | U44C A60U | 0.441
84 | U44C A60G | 0.669
85 | C45G U64C | 0.836
86 | C45G U64G | 0.739
87 | U44C C45U | 0.955
88 | U44C C45A | 0.998
89 | U44A U69C | 1.05
90 | U44A U69G | 1.02
91 | U44A U69A | 0.956
92 | U43G U64A | 0.506
93 | U43G U64C | 0.409
94 | U44C G68C | 0.949
95 | U44C G68A | 0.979
96 | U44G U69A | 1.01

Row | Variant | self-cleavage
97 | U44G U69G | 1.04
98 | U44G U69C | 1.04
99 | C45G A51U | 1.03
100 | C45G A51G | 1.02
101 | C45G A51C | 1.01
102 | U44C U67A | 0.954
103 | U44C U67G | 0.931
104 | U43G G48A | 0.964
105 | U43G G48C | 0.933
106 | C45A G48C | 1.01
107 | C45A G48U | 0.976
108 | U44G C66U | 0.986
109 | U44G C66G | 0.707
110 | U44C A51G | 0.693
111 | U44C A51C | 0.99
112 | U44C A51U | 0.919
113 | C45G U53C | 0.806
114 | C45G U53G | 0.858
115 | U44C A59U | 0.657
116 | U44C A59C | 0.577
117 | U44C A59G | 0.958
118 | U44A G47C | 0.93
119 | U43G C66U | 0.794
120 | U43G C66A | 0.319

Row | Variant | self-cleavage
121 | U44C U64A | 0.662
122 | U44C U64G | 0.719
123 | U43G U44C | 0.936
124 | U43G U44A | 0.971
125 | C45A G58C | 1.02
126 | C45A G58A | 1
127 | C45U G50C | 1.02
128 | C45U G50A | 1.01
129 | C45A U49C | 1
130 | U43G C63G | 0.446
131 | U44A U64G | 0.8
132 | U44A U64A | 0.843
133 | C45G C54G | 0.688
134 | C45G C54U | 0.952
135 | U44G G68A | 0.942
136 | U44G G68U | 1.03
137 | U44G G68C | 1.01
138 | U44C G65C | 0.452
139 | U43G U46G | 0.915
140 | U43G U46C | 0.677
141 | C45G A59U | 0.815
142 | C45G A59C | 0.638
143 | C45G A59G | 0.969
144 | U43G G68A | 0.948

Row | Variant | self-cleavage
145 | U43G G68U | 0.901
146 | U44C U62G | 0.664
147 | U44C U62C | 0.572
148 | C45G U55C | 0.487
149 | C45G U55G | 0.648
150 | C45G U55A | 0.797
151 | C45U G48A | 0.992
152 | C45U G48C | 0.975
153 | C45U G48U | 1.01
154 | C45A U61A | 0.86
155 | C45A U61G | 0.6
156 | C45A U64A | 0.821
157 | C45A U64G | 0.809
158 | C45A U64C | 0.842
159 | U44A A60U | 0.353
160 | U44A A60C | 0.423
161 | U44A G58C | 1.01
162 | U44C C66U | 0.928
163 | U44C C66G | 0.464
164 | U44C C66A | 0.502
165 | U44G U67G | 1.01
166 | U44G U67C | 0.977
167 | U44G U67A | 0.883
